Tests used:
[1] = target: Thrombomodulin (recombinant) (UniProt P07204)
[2] = target: High mobility group box 1 (UniProt P09429)
High mobility group box 1, sequence (P09429 whole entry): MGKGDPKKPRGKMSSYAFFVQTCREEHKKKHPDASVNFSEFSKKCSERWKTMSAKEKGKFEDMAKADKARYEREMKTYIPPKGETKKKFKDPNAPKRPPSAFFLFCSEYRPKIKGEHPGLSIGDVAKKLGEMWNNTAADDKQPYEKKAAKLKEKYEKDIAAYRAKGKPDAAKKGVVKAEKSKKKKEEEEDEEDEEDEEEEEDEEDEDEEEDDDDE

Thrombomodulin (recombinant), sequence (P07204 whole entry, looked up): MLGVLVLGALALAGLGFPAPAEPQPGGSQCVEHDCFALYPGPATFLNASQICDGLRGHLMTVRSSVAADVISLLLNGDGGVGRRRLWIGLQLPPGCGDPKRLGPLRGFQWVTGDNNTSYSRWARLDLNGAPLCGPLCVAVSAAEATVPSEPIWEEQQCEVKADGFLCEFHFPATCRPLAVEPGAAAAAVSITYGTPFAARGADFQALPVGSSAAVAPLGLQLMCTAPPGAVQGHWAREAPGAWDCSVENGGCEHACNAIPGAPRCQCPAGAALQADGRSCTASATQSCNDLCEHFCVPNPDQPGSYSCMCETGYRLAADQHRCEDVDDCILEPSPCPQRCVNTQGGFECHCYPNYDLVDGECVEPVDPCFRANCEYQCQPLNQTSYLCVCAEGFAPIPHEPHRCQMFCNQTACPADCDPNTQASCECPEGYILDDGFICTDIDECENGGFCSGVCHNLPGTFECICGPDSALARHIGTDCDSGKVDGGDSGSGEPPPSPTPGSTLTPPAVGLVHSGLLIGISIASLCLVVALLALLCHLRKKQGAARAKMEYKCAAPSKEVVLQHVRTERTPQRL

Row | Substance | acceleration of HMGB1 cleavage by 2 nM PCgla/MeizoTh with 400 nmol/L recombinant TM, SDS-PAGE and immunoblot [1] | proteolytic cleavage of HMGB1 (400 nmol/L) by 2 nM protease, SDS-PAGE and immunoblot [2] | proteolytic degradation of HMGB1 by 100 nM APC, with or without soluble EPCR and/or PC/PS/PE vesicles, 2 hours at 37 C [2]
1 | PCgla/meizothrombin (meizothrombin with its Gla-domain replaced by that of protein C; Factor Xa-activated PCgla/prothrombin-3A) | TM can function as a cofactor to markedly accelerate the cleavage reaction | PCgla/MeizoTh can proteolytically cleave HMGB1 | 
2 | Activated protein C |  |  | APC had no direct proteolytic effect on HMGB1 ... did not lead to the degradation of HMGB1 even after 2 hours incubation at 37 °C (data not shown)
